The source of these data is patent publication US20180305431A1 (Novo Nordisk, published 2018).

In test [1] the target is T1, membrane-associated human IGF-1R (plasma membranes of BHK cells stably transfected with the human IGF-IR … (human, UniProt P08069 31-1367)).
T1 construct: whole, on cells; Receptor in purified plasma membranes, not on intact cells; also called hIGF1R; insulin-like growth factor 1 receptor
Kind of test: SPA competition vs [125I-Tyr31]-human IGF-1, membrane hIGF-1R, 0.1% HSA. The method, then: The relative binding affinity for either of the membrane-associated human IR-A, IR-B or IGF-1R is determined by competition binding in a SPA setup. IR assays are performed in duplicate in 96-well OptiPlates (Perkin-Elmer Life Sciences). […] Assays are terminated by centrifugation of the plate at 2000 rpm for 2 minutes and bound radioactivity quantified by counting on a TopCount NXT (Perkin-Elmer Life Sciences).
IGF-1R assays are conducted essentially as for the IR binding assays except that membrane-associated IGF-1R and 50 pM [¹²5-Tyr31]-human IGF-1 were employed.

Test [2] has as its target insulin receptor on primary rat adipocytes (rat) (UniProt P15127). Kind of test: cell-based or functional assay.
Test [3] deals with membrane-associated human IR-A (plasma membranes of BHK cells stably transfected with the human IR-A insert) (human) (UniProt P06213). Put plainly: SPA competition vs [125I-A14Y]-human insulin, membrane hIR-A, 0.1% HSA.
Test [4] addresses T2, solubilised human IR-A (semipurified by wheat germ agglutinin chromatography from baby hamster kidney (BHK) … (human, UniProt P06213-2 28-1370)).
T2 construct: mature; Detergent-solubilised holoreceptor captured by anti-IR mouse antibody 83-7 on SPA beads; the precursor is processed into alpha and beta chains; also called hIRA; human insulin receptor (IR), A isoform
Put plainly: SPA competition vs [125I-A14Y]-human insulin, solubilised hIR-A, 0% HSA.

The target in test [5] is T2, solubilised human IR-A (semipurified by …). Kind of test: SPA competition vs [125I-A14Y]-human insulin, solubilised hIR-A, 1.5% HSA.
Test [6] concerns the target membrane-associated human IR-B (plasma membranes of BHK cells stably transfected with the human IR-B insert) (human) (UniProt P06213). Kind of test: SPA competition vs [125I-A14Y]-human insulin, membrane hIR-B, 0.1% HSA.

membrane-associated human IR-B (plasma membranes of BHK cells stably transfected with the human IR-B insert) (human), sequence (P06213 28-1382): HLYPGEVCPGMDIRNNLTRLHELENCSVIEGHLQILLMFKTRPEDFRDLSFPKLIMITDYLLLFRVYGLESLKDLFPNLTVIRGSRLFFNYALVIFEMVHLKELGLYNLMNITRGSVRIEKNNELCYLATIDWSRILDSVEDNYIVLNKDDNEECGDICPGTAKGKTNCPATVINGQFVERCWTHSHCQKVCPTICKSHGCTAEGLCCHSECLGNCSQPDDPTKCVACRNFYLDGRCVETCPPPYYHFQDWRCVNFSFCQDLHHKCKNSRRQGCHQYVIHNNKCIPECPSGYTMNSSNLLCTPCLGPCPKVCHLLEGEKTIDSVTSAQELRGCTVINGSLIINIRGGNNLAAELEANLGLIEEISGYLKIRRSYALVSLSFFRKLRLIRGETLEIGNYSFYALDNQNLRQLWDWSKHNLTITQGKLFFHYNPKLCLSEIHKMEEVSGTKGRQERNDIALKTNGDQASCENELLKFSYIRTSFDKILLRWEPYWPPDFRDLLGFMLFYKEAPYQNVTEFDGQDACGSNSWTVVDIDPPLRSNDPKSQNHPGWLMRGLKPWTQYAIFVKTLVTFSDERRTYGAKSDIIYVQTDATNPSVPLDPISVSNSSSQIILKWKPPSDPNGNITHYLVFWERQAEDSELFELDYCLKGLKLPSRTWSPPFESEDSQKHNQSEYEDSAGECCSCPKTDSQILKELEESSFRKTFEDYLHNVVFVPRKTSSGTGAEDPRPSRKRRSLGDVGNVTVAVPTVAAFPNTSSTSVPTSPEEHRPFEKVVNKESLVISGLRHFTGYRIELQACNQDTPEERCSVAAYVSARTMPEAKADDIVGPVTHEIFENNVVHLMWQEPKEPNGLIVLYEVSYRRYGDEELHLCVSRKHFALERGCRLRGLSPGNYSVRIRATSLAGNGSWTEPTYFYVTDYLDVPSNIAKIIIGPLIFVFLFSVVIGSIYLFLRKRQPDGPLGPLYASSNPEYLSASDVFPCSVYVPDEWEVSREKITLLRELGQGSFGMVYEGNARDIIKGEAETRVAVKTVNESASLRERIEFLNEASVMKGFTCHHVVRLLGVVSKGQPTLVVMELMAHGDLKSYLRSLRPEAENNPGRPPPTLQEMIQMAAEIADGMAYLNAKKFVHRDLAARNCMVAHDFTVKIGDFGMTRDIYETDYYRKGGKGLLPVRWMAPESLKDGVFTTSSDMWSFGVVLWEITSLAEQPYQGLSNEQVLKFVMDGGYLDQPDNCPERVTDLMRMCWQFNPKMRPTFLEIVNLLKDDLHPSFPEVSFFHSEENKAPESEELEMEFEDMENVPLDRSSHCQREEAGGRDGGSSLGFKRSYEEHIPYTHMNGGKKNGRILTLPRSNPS
T2 sequence (P06213 other isoform, or with tags, fused parts or gaps limits assumed): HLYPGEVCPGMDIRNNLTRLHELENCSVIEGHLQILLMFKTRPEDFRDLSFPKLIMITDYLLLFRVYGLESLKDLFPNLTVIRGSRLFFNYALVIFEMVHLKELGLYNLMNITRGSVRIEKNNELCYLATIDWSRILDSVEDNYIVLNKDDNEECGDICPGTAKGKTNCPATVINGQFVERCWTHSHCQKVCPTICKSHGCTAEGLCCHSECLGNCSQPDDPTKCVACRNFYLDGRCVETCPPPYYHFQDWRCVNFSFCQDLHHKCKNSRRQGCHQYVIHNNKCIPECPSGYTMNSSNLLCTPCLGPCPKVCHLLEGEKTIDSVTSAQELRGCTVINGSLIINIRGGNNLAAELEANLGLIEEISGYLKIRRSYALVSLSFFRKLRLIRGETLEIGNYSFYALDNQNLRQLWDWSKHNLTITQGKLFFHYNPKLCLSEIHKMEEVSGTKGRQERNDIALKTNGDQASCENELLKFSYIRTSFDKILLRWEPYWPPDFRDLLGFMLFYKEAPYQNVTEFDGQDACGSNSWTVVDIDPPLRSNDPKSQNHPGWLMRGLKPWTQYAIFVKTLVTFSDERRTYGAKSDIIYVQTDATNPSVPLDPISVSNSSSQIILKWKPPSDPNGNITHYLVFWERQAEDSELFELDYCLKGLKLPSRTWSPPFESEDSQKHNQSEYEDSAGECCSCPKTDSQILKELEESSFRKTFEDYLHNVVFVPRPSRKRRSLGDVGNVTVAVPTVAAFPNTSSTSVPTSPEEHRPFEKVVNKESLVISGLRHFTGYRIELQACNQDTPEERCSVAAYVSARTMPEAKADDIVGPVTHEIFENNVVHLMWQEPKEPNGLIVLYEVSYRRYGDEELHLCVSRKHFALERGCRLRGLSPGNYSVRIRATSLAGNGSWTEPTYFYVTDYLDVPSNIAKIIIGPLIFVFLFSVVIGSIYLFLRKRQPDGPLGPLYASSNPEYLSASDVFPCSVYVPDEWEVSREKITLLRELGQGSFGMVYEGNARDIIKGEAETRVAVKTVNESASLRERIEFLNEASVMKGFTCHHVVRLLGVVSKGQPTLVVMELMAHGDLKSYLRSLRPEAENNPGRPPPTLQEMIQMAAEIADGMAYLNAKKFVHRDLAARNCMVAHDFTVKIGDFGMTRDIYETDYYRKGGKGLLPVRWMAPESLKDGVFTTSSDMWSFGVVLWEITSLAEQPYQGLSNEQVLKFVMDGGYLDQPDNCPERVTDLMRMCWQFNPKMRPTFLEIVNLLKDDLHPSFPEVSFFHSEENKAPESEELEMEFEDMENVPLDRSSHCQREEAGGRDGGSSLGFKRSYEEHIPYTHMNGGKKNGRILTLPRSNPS
insulin receptor on primary rat adipocytes (rat), sequence (P15127 27-1383): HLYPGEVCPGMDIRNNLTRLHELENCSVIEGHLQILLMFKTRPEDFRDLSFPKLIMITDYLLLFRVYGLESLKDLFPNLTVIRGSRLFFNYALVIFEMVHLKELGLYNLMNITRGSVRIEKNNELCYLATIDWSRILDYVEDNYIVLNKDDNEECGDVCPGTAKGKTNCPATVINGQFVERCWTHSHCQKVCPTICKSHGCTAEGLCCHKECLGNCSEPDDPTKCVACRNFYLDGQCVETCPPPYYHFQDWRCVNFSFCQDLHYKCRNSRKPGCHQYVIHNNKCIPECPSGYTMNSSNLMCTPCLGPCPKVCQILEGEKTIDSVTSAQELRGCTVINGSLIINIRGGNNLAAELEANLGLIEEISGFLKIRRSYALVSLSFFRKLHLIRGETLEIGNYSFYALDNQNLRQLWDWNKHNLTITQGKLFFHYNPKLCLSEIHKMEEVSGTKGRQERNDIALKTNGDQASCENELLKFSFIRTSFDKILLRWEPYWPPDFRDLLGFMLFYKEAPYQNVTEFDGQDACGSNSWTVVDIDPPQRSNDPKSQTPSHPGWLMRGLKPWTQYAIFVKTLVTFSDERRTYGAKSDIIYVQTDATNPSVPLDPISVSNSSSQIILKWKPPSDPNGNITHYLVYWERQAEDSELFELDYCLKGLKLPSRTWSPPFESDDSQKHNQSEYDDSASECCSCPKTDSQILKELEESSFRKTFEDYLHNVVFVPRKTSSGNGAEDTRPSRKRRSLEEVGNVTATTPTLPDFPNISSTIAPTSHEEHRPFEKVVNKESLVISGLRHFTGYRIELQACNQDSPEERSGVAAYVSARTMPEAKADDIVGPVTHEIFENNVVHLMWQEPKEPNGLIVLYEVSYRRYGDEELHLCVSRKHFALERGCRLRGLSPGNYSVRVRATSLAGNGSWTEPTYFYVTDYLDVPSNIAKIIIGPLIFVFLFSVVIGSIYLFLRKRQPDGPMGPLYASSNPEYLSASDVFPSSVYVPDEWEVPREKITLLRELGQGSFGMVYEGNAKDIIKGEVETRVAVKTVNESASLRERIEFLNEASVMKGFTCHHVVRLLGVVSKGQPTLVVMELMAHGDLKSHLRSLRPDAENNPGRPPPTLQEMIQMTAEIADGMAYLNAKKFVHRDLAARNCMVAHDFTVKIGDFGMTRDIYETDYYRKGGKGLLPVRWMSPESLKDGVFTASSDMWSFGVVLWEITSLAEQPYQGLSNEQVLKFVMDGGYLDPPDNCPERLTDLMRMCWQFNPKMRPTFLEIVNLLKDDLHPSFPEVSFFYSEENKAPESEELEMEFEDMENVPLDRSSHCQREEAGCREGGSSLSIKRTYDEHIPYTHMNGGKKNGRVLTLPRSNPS

B1: A8R, A22K(N(eps)tetradecanedioyl-4xgGlu), B3E, B26E, B29R, desB30 human insulin (ligand)
chain 1: GIVEQCCRSICSLYQLENYCNK
chain 2: FVEQHLCGSHLVEALYLVCGERGFFETPR
modifications: not fully specified; Lys A22 acylated on N(eps) with tetradecanedioyl-4xgGlu
notes: Two-chain acylated insulin analogue; also called Ex. No. 15
For the molecule B1, the “relative binding affinity (% rel to HI)” value in test [1] was 10.8 % rel to HI; in test [3] it was 108 % rel to HI; in test [4] it was 294 % rel to HI; in test [5], 237 % rel to HI; in test [6], 174 % rel to HI. Also, the Lipogenesis 1% HSA (% rel to HI) in test [2] is 70.9 % rel to HI.

B2: A14E, A22K(N(eps)tetradecanedioyl-4xgGlu), B3Q, B28D, B29R, desB30 human insulin (ligand)
chain 1: GIVEQCCTSICSLEQLENYCNK
chain 2: FVQQHLCGSHLVEALYLVCGERGFFYTDR
modifications: not fully specified; Lys A22 acylated on N(eps) with tetradecanedioyl-4xgGlu
notes: also called Ex. No. 8
Take B2: the “relative binding affinity (% rel to HI)” value is 42 % rel to HI in test [1]; 34.3 % rel to HI in test [3]; 95.6 % rel to HI in test [4]; 64.9 % rel to HI in test [5]; 59.1 % rel to HI in test [6]. In test [2], the Lipogenesis 1% HSA (% rel to HI) was 17.2 % rel to HI.

B3: A14E, A22K(N(eps)tetradecanedioyl-4xgGlu), B3E, B27E, B28E, B29R, desB30 human insulin (ligand)
chain 1: GIVEQCCTSICSLEQLENYCNK
chain 2: FVEQHLCGSHLVEALYLVCGERGFFYEER
modifications: not fully specified; Lys A22 acylated on N(eps) with tetradecanedioyl-4xgGlu
notes: Two-chain acylated insulin analogue; also called Ex. No. 4
Take B3: the “relative binding affinity (% rel to HI)” value is 28.6 % rel to HI in test [1]; 36.6 % rel to HI in test [3]; 47.4 % rel to HI in test [4]; 44.9 % rel to HI in test [5]; 56.6 % rel to HI in test [6]. The Lipogenesis 1% HSA (% rel to HI) in test [2] was 15.4 % rel to HI.

B4: A14E, A22K(N(eps)tetradecanedioyl-4xgGlu), B3Q, B27E, B28E, B29R, desB30 human insulin (ligand)
chain 1: GIVEQCCTSICSLEQLENYCNK
chain 2: FVQQHLCGSHLVEALYLVCGERGFFYEER
modifications: not fully specified; Lys A22 acylated on N(eps) with tetradecanedioyl-4xgGlu
notes: also called Ex. No. 9
In the case of B4, the “relative binding affinity (% rel to HI)” value in test [1] is 29.5 % rel to HI; in test [3], 36.8 % rel to HI; in test [4], 83 % rel to HI; in test [5] it was 70.2 % rel to HI; in test [6], 68.7 % rel to HI. Also, in test [2], the Lipogenesis 1% HSA (% rel to HI) was 30.1 % rel to HI.

B5: A14E, A22K(N(eps)tetradecanedioyl-gGlu-2xOEG), B3E, B27E, B28E, B29R, desB30 human insulin (ligand)
chain 1: GIVEQCCTSICSLEQLENYCNK
chain 2: FVEQHLCGSHLVEALYLVCGERGFFYEER
modifications: not fully specified; Lys A22 acylated on N(eps) with tetradecanedioyl-gGlu-2xOEG
notes: Two-chain acylated insulin analogue; also called Ex. No. 2
As for B5, the “relative binding affinity (% rel to HI)” value in test [1] is 36.6 % rel to HI; in test [3], 50.1 % rel to HI; in test [4] it was 60.4 % rel to HI; in test [5] it was 38.9 % rel to HI; in test [6] it was 70.2 % rel to HI. The Lipogenesis 1% HSA (% rel to HI) in test [2] is 14.2 % rel to HI.

B6: A8R, A22K(N(eps)tetradecanedioyl-4xgGlu), B3E, B27E, B28E, B29R, desB30 human insulin (ligand)
chain 1: GIVEQCCRSICSLYQLENYCNK
chain 2: FVEQHLCGSHLVEALYLVCGERGFFYEER
modifications: not fully specified; Lys A22 acylated on N(eps) with tetradecanedioyl-4xgGlu
notes: Two-chain acylated insulin analogue; also called Ex. No. 24
For the molecule B6, the “relative binding affinity (% rel to HI)” value is 24 % rel to HI in test [1]; 88.1 % rel to HI in test [3]; 274 % rel to HI in test [4]; 211 % rel to HI in test [5]; 164 % rel to HI in test [6]. The Lipogenesis 1% HSA (% rel to HI) in test [2] was 78.6 % rel to HI.

B7: A14E, A22K(N(eps)hexadecanedioyl-gGlu-2xOEG), B3E, B27E, B28E, B29R, desB30 human insulin (ligand)
chain 1: GIVEQCCTSICSLEQLENYCNK
chain 2: FVEQHLCGSHLVEALYLVCGERGFFYEER
modifications: not fully specified; Lys A22 acylated on N(eps) with hexadecanedioyl-gGlu-2xOEG
notes: Two-chain acylated insulin analogue; also called Ex. No. 26
For the molecule B7, the “relative binding affinity (% rel to HI)” value is 28.7 % rel to HI in test [1]; 19.3 % rel to HI in test [3]; 63.7 % rel to HI in test [4]; 7.4 % rel to HI in test [5]; 28.7 % rel to HI in test [6]. In addition, the Lipogenesis 1% HSA (% rel to HI) in test [2] was 2.6 % rel to HI.

B8: A14E, A22K(N(eps)hexadecanedioyl-4xgGlu), B3E, B27E, B28E, B29R, desB30 human insulin (ligand)
chain 1: GIVEQCCTSICSLEQLENYCNK
chain 2: FVEQHLCGSHLVEALYLVCGERGFFYEER
modifications: not fully specified; Lys A22 acylated on N(eps) with hexadecanedioyl-4xgGlu
notes: Two-chain acylated insulin analogue; also called Ex. No. 27
Turning to B8, the “relative binding affinity (% rel to HI)” value is 14.3 % rel to HI in test [1]; 16.5 % rel to HI in test [3]; 114 % rel to HI in test [4]; 5.4 % rel to HI in test [5]; 23.2 % rel to HI in test [6]. Also, in test [2], the Lipogenesis 1% HSA (% rel to HI) is 3.7 % rel to HI.

B9: A8R, A22K(N(eps)tetradecanedioyl-4xgGlu), B3E, B26E, B27E, B28R, desB29, desB30 human insulin (ligand)
chain 1: GIVEQCCRSICSLYQLENYCNK
chain 2: FVEQHLCGSHLVEALYLVCGERGFFEER
modifications: not fully specified; Lys A22 acylated on N(eps) with tetradecanedioyl-4xgGlu
notes: Two-chain acylated insulin analogue; also called Ex. No. 19
B9: the “relative binding affinity (% rel to HI)” value was 22.6 % rel to HI in test [1]; 88.8 % rel to HI in test [3]; 260 % rel to HI in test [4]; 188 % rel to HI in test [5]; 155 % rel to HI in test [6]. Moreover, in test [2], the Lipogenesis 1% HSA (% rel to HI) is 80.3 % rel to HI.

B10: A8R, A22K(N(eps)tetradecanedioyl-4xgGlu), B3E, B26E, B27P, B28R, desB29, desB30 human insulin (ligand)
chain 1: GIVEQCCRSICSLYQLENYCNK
chain 2: FVEQHLCGSHLVEALYLVCGERGFFEPR
modifications: not fully specified; Lys A22 acylated on N(eps) with tetradecanedioyl-4xgGlu
notes: also called Ex. No. 16
Consider B10, for which the “relative binding affinity (% rel to HI)” value in test [1] was 61.8 % rel to HI; in test [3], 113 % rel to HI; in test [4] it was 317 % rel to HI; in test [5] it was 229 % rel to HI; in test [6], 168 % rel to HI. Moreover, the Lipogenesis 1% HSA (% rel to HI) in test [2] is 130 % rel to HI.

B11: A8R, A22K(N(eps)tetradecanedioyl-4xgGlu), B3E, B27E, B28R, desB29, desB30 human insulin (ligand)
chain 1: GIVEQCCRSICSLYQLENYCNK
chain 2: FVEQHLCGSHLVEALYLVCGERGFFYER
modifications: not fully specified; Lys A22 acylated on N(eps) with tetradecanedioyl-4xgGlu
notes: Two-chain acylated insulin analogue; also called Ex. No. 17
Turning to B11, the “relative binding affinity (% rel to HI)” value is 32.9 % rel to HI in test [1]; 85.2 % rel to HI in test [3]; 243 % rel to HI in test [4]; 163 % rel to HI in test [5]; 130 % rel to HI in test [6]. Further, the Lipogenesis 1% HSA (% rel to HI) in test [2] is 70.7 % rel to HI.
